The text below walks through data of patent US20240376195A1 (BEIGENE, published 2024).

Assay [1] addresses T1, NKp30 (form in the assay not stated) (UniProt O14931 19-135, limits assumed).
T1 construct: It is inferred from BGA1831 being an anti-NKp30 antibody
T1 sequence (looked up): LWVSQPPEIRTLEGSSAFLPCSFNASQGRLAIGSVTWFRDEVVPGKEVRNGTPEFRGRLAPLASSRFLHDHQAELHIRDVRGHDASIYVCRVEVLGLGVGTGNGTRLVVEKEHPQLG
The experiment in a line: flow cytometry, y axis NKp30 (MFI); cells not named in the legend or on the sheet.

Assay [2] addresses T2, his-tagged human NKp30 (human, UniProt O14931 19-135).
T2 construct: Analyte of the SPR assay; not shown: his tag
T2 sequence: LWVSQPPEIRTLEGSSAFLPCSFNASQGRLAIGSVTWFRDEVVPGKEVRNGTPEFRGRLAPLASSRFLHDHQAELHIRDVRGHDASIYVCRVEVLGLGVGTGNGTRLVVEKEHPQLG
The experiment in a line: SPR (BIAcore T-200), antibody captured by anti-mouse IgG, his-tagged human NKp30 as analyte. From the text: The NKp30 antibodies with high binding activities in ELISA and FACS, as well as with potent functional activities in the cell-based assays (described in Example 1 above) were characterized for their binding kinetics by SPR assays using BIAcore™ T-200 (GE Life Sciences). Briefly, an anti-mouse IgG antibody was immobilized on an activated CM5 biosensor chip (Cat. No.: BR100530, GE Life Sciences). Purified NKp30 murine antibodies were flowed over the chip surface and captured by the anti-mouse IgG antibody. Then a serial dilution (0.098 nM to 25 nM) of his-tagged human NKp30 was flowed over the chip surface and changes in surface plasmon resonance signals were analyzed to calculate the association rates (kₒₙ) and dissociation rates (koff) by using the one-to-one Langmuir binding model (BIA Evaluation Software, GE Life Sciences). The equilibrium dissociation constant (KD) was calculated as the ratio koff/kₒₙ.
For orientation: In SPR one partner is held on a chip, and binding of the other changes the refractive index at the surface.

The target in a further assay is T3, NKp30-mIgG2a (human; mouse, UniProt O14931 19-135).
T3 construct: also called soluble NKp30; NKp30-mIgG2a fusion protein; not shown: Fc domain of mouse IgG2a, fused to the C-terminus of the NKp30 ECD
T3 sequence: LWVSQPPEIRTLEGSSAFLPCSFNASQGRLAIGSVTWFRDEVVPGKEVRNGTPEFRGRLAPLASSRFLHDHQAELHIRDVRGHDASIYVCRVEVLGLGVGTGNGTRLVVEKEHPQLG
The experiment in a line: flow cytometry blocking assay; binding of NKp30-mIgG2a to B7-H6 on HCT116/B7-H6 cells in the presence of serially diluted antibody. On the procedure: A schematic diagram showing the inhibition of NKp30/B7-H6 interactions by anti-NKp30 Ab. The binding of soluble NKp30 (NKp30-mIgG2a fusion protein) to B7-H6-expressing HCT116 cells (HCT116/B7-H6) was determined by flow cytometry. The blockade of NKp30/B7-H6 interaction was quantitatively measured by adding serially diluted BGA1833/IgG1. Results are shown in mean±SD of duplicates.
(Joyce et al., 2011 PNAS 108:6223-6228). […] In addition, these two residues were previously determined to be important for NKp30/B7-H6 interaction in a structural study (Li et al., J Exp Med. 2011 208:703-714). […] For this assay, a B7-H6 stably transduced cell line HCT116/B7-H6 was incubated with NKp30-mIgG2a in the presence of serially diluted BGA1833, followed by detection with […].

Assay [3] addresses T4, full-length human NKp30 on NK92MI cells (human, UniProt O14931 19-201).
T4 construct: Full-length human NKp30 over-expressed on NK92MI cells; also called huNKp30; native NKp30
T4 sequence: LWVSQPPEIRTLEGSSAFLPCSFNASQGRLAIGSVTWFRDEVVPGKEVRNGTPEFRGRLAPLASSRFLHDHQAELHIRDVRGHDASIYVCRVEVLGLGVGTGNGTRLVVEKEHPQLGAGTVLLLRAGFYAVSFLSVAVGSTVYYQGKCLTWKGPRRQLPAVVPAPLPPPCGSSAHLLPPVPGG
As to the kind of experiment: flow cytometry on live NK92MI cells over-expressing human NKp30, goat anti-human IgG detection. On the procedure: To evaluate the binding activity of anti-NKp30 antibodies to native NKp30 on living cells, NK92MI cells were transfected to over-express human NKp30. Live NK92mi/NKp30 expressing cells were seeded in 96-well plates and were incubated with a serial dilution of anti-NKp30 antibodies. Goat anti-Human IgG was used as secondary antibody to detect antibody binding to the cell surface. EC₅₀ values for dose-dependent binding to human native NKp30 were determined by fitting the dose-response data to the four-parameter logistic model with GraphPad Prism™.
Background: Flow cytometry measures light scatter and fluorescence of single cells or particles in a stream.

For assay [4], the target named is T2, his-tagged human NKp30. The experiment in a line: SPR, antibody captured on anti-human Fc surface; NKp30 analyte not named in Example 4. An excerpt:
Further engineered versions of humanized monoclonal antibodies were derived from the mutation process described as above and characterized in detail. […] For affinity determination, antibodies were captured by anti-human Fc surface, and used in the affinity assay based on surface plasmon resonance (SPR) technology. All the humanization antibodies shown above were also confirmed for functional activities on primary human immune cells isolated from healthy donors (described in Example 7 below).

B1: mu183 (antibody, V domains shown)
VH: QVQLQQPGSVLVRPGASVKLSCKASGYTFTSSWMHWAKQRPGQGLEWIGEIHPNRDNTNYNEKFKGKATLTVDTSSSTAYVDLSSLTSEDSAVYYCARSYYDYGGAYFDSWGQGTTLTVSS
VL: QIVLTQSHKFMSTSVGDRVSITCKASQDVSTAVAWYQQKPGQSPKLLIYAASYRHIGVPDRFTGSGSGTDFTFTISSVQAEDLAVYYCQQHYSNPFTFGSGTKLEIK
notes: Murine hybridoma antibody, purified on Protein A; also called murine anti-NKp30 antibody mu183
By EC50 is commonly meant the midpoint of the concentration-response curve. Read a low EC50 as greater potency. As usually defined, the Kd is a measure of binding affinity in units of concentration. A lower Kd goes with tighter binding. As a reminder, the koff is the first-order rate constant of dissociation. Lower therefore signals slow dissociation. One may read the kon as the rate constant with which the complex forms. Low values mean slow association, high ones fast association. A word on the IC50: it is the midpoint of a concentration-inhibition curve. As for B1, in assay [1], the concentration giving a half-maximal response (EC50) was 0.263 µg/mL. In the assay with his-tagged human NKp30 [2], this molecule displayed a Kd of 132 pM, an off-rate (koff) of 0.00021 s⁻¹ and an association rate constant (kon) of 1.59e+06 M⁻¹ s⁻¹. Besides, in the assay with NKp30-mIgG2a, the IC50 came out at 0.169 µg/mL.

B2: ch183 (antibody, V domains shown)
VH: QVQLQQPGSVLVRPGASVKLSCKASGYTFTSSWMHWAKQRPGQGLEWIGEIHPNRDNTNYNEKFKGKATLTVDTSSSTAYVDLSSLTSEDSAVYYCARSYYDYGGAYFDSWGQGTTLTVSS
VL: QIVLTQSHKFMSTSVGDRVSITCKASQDVSTAVAWYQQKPGQSPKLLIYAASYRHIGVPDRFTGSGSGTDFTFTISSVQAEDLAVYYCQQHYSNPFTFGSGTKLEIK
notes: not shown: human immunoglobulin kappa constant region
Regarding B2, in assay [3], the concentration for a half-maximal effect (EC50) was 1550 pM. In the assay with his-tagged human NKp30 [4], this molecule returned a Kd of 143 pM, a koff of 0.000318 s⁻¹ and a kon of 2.22e+06 M⁻¹ s⁻¹.

B3: BGA1833/IgG1 (antibody)
heavy: not shown
light: QIQLTQSPSSLSASVGDRVTITCKASQDVSTAVAWYQQKPGKAPKLLIYAASYRHIGVPSRFSGSGSGTDFTLTISSLQPEDFATYYCQQHYSNPFTFGGGTKVEIKRTVAAPSVFIFPPSDEQLKSGTASVVCLLNNFYPREAKVQWKVDNALQSGNSQESVTEQDSKDSTYSLSSTLTLSKADYEKHKVYACEVTHQGLSSPVTKSFNRGEC
notes: BGA1833 with wild-type human IgG1 heavy chain; also called BGA1833 with wt IgG1
With B3, in the assay with NKp30-mIgG2a, the IC50 amounted to 0.144 µg/mL.

B4: BGA1832 (antibody, human IgG1, kappa, V domains shown)
VH: QVQLVQSGAEVKKPGASVKVSCKASGYTFTSSYMHWVRQAPGQGLEWMGEIHPNRDNTNYNEKFKGRVTMTVDTSTSTVYMELSSLRSEDTAVYYCARSYYDYGGAYFDAWGQGTLVTVSS
VL: DIQLTQSPSSLSASVGDRVTITCKASQDVSTAVAWYQQKPGKAPKLLIYAASYRHIGVPSRFSGSGSGTDFTLTISSLQPEDFATYYCQQHYSNPFTFGGGTKVEIKR
Turning to B4, in the assay with his-tagged human NKp30 [4], binding was put at a Kd of 213 pM, the koff turned out to be 0.000331 s⁻¹ and the on-rate constant (kon) amounted to 1.55e+06 M⁻¹ s⁻¹.

B5: BGA1831 (antibody, human IgG1, kappa, V domains shown)
VH: QVQLVQSGAVVVKPGASVKVSCKASGYTFTSSWMHWARQAPGQGLEWIGEIHPNRDNTNYNEKFKGRATLTVDTSTSTAYMELSSLRSEDTAVYYCARSYYDYGGAYFDSWGQGTLVTVSS
VL: QIVLTQSPSSLSASVGDRVTITCKASQDVSTAVAWYQQKPGKSPKLLIYAASYRHIGVPSRFSGSGSGTDFTFTISSLQPEDFATYYCQQHYSNPFTFGGGTKVEIKR
notes: also called humanized anti-NKp30 Ab BGA1831
On to B5, for which a half-maximal response in assay [3] (EC50) required 1260 pM. In the assay with his-tagged human NKp30 [4], this molecule registered a Kd of 198 pM, a koff of 0.000377 s⁻¹ and a kon of 1.91e+06 M⁻¹ s⁻¹.
